Experimental data reported in US20240228570A9, “PLATFORM TECHNOLOGY FOR TREATMENT OF INFLAMMATORY, IMMUNOLOGICAL AND/OR AUTOIMMUNOLOGICAL DISEASES” (ellennbe GmbH, priority 2021, published 2024).

Tested on: inflammatory disease, immunological disease and/or autoimmunological disease
Experiment: Treatment of patients: condition as stated by patient and physician (pain, fatigue, daily life, duration of effect, relapses)
Type: in vivo, human
Details: Patient 11, ankylosing spondylitis; within half a year the biologics lost their effect
Experimental: All patients treated in the following Inventive Examples, Reference Examples and Comparative Examples were selected solely based on their diagnosis without performing a preselection in view of other parameters.
Annotation to the Tables 8A and B and 9 to 10: Patients were usually examined and treated in the same session. The success of the treatment or the effect thereof was then determined in the following session, usually one week later, and the next treatment performed as indicated in the tables.

B1: Cimzia®: biologic, certolizumab pegol (antibody, chains of the INN, looked up, V domains shown)
VH: EVQLVESGGGLVQPGGSLRLSCAASGYVFTDYGMNWVRQAPGKGLEWMGWINTYIGEPIYADSVKGRFTFSLDTSKSTAYLQMNSLRAEDTAVYYCARGYRSYAMDYWGQGTLVTVSS
VL: DIQMTQSPSSLSASVGDRVTITCKASQNVGTNVAWYQQKPGKAPKALIYSASFLYSGVPYRFSGSGSGTDFTLTISSLQPEDFATYYCQQYNIYPLTFGQGTKVEIK
modifications: Fab' PEG (pegol)
  effect of earlier treatment with biologics (patient's report): had little effect from the outset
